Among the data in US20090053212A1 (Astellas, published 2009) are Mean cell count (migration of TNF-alpha-activated human peripheral blood monocytes, 48-well microchemotaxis chamber; antibody 50 ug/mL), binding result and fold binding affinity against the corresponding monkey OPN peptide values, retold here.

Assay [1] has as its target thrombin-cleaved human osteopontin (human), P10451. Nature of the assay: cell-based or functional assay.
Assay [2] concerns the target T1, hOPN5-BSA conjugate (human osteopontin peptide CVDTYDGRGDSVVYGLRS coupled to BSA) (human, also: coupled to maleimide-activated BSA (Sulfo-EMCS), site not given here).
T1 construct: Immobilized on the ELISA plate at 200 ng/100 uL/well as a BSA conjugate; also called hOPN5 peptide
T1 peptide: CVDTYDGRGDSVVYGLRS
Nature of the assay: ELISA, hOPN5-BSA conjugate on the plate, HRP-labeled anti-human IgG (H+L) detection. How it is done:
(§1) The peptide having the above-described sequence (hereinafter also referred to as the hOPN5 peptide) was reacted with BSA incorporating a maleimide group introduced using Sulfo-EMCS (Dojindo Laboratories) to prepare a hOPN5-BSA conjugate. The hOPN5-BSA conjugate was immobilized at 200 ng/100 μL/well on an ELISA plate (Nunc Company) at 4° C. overnight, and the plate was washed, after which blocking was performed with PBS supplemented with 1% BSA at 4° C. overnight. An antibody sample diluted with PBS supplemented with 1% BSA was added to the plate at 100 μL/well, and they were reacted at 37° C. for 1 hour. Detection was performed using a peroxidase (HRP)-labeled anti-human IgG (H+L) antibody (Wako Pure Chemical Industries, Ltd.). Absorbance at a wavelength of 450 nm was measured using a microplate reader (Molecular Devices Company).

Assay [3] addresses human OPN peptide (SVVYGLR sequence of human OPN) (human). Description: method not stated.
A further assay addresses T2, biotinized hOPN5 peptide (human, also: biotinylated, site not given here).
T2 peptide: CVDTYDGRGDSVVYGLRS
Description: surface plasmon resonance (BIAcore), biotinized hOPN5 peptide on Sensor Chip SA, F(ab')2-PEG at 5 ug/mL. As for the experimental part: The binding activity of the purified F(ab′)₂—PEG of R2K1v1.7 to the hOPN5 peptide was confirmed using surface plasmon resonance assay. The biotinized hOPN5 peptide was immobilized on Sensor Chip SA (BIAcore Company), and its binding activity was confirmed using the F(ab′)₂—PEG, previously diluted to 5 μg/mL with HBS-EP buffer (BIAcore Company); the results are shown in FIG. 16. From a rise in the signal, this F(ab′)₂—PEG was confirmed as having the same binding activity to the hOPN5 peptide as that of R2K1v1.7.
(In general: Surface plasmon resonance follows binding to a sensor surface in real time, without labels.)

Assay [4] addresses T1, hOPN5-BSA conjugate (human osteopontin …). Description: ELISA, HRP-labeled anti-E-Tag antibody detection. How it is done:
as §1
(§2) The binding activity of the purified R2K1v1.7-scFv to the hOPN5 peptide was measured by an ELISA method. The method was generally the same as described above; in this measurement, HRP-labeled anti-E-Tag antibody was used as the labeled antibody.
In general terms: An ELISA detects its analyte on a solid surface through an enzyme-linked reagent.

The target of the next assay is T3, BSA (UniProt P02769 25-607).
T3 construct: also called negative control BSA
Nature of the assay: ELISA, detection with HRP-labeled anti-E-Tag antibody. How it is done: as §1, §2

Where no end group is shown, it is not given here. Bounds are passed on as bounds.

T3 sequence (P02769 25-607 limits assumed): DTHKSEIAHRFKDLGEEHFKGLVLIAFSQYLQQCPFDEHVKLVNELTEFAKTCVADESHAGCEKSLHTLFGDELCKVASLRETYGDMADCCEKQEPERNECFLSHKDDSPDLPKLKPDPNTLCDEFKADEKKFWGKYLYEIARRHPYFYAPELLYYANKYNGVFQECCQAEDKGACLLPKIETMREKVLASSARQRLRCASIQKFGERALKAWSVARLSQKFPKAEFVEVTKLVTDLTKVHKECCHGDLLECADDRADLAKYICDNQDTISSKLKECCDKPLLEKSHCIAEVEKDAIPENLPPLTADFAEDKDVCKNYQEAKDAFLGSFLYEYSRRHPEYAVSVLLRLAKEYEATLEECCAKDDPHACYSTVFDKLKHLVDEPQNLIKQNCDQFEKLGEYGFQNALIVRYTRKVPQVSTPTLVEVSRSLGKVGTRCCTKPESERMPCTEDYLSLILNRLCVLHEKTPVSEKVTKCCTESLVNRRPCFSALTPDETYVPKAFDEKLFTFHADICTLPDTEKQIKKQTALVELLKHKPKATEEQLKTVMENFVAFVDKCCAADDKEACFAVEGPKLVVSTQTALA
Chain of thrombin-cleaved human osteopontin (human), P10451 (P10451 17-314): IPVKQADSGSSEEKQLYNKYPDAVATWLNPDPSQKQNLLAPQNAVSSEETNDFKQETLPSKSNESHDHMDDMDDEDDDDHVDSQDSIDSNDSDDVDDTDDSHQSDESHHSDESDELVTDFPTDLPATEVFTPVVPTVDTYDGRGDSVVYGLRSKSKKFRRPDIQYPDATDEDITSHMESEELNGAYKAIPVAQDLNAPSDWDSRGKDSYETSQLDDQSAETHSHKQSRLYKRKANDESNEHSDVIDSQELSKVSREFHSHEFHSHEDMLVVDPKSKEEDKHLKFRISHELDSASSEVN

B1: R2K1v1.8 antibody (antibody, V domains shown)
VH: QVQLVQSGAELVRPGSSVKVSCKASGYTFTDYEMHWVKQTPVHGLEWIGAIHPGRGGTAYNQKFKGKATLTADKSTSTAYMELSSLTSEDTAVYYCTRITGYFDVWGQGTTVTVSS
VL: DVVMTQSPLSLPVTLGQPASISCRSSQSIVHSNGNTYLEWYLQKPGQSPQLLIYKVSNRFSGVPDRFSGSGSGTDFTLKISRVEAEDVGVYYCFQGSHVPLTFGQGTKLEIKR
notes: Only entries with a leader are tied to VH1.8 and VL1.8; also called humanized 2K1 antibody; R2K1 antibody
In the case of B1, in assay [1], the Mean cell count (migration of TNF-alpha-activated human peripheral blood monocytes, 48-well microchemotaxis chamber; antibody 50 ug/mL) was found to be 688 cells/mm^3. Further, the binding result in assay [2] is recorded as “binds”.

B2: R2K1v1.7 antibody (antibody, human IgG1, kappa, V domains shown)
VH: QVQLQQSGAEVKKPGASVKVSCKALGYTFTDYEMHWVKQTPVHGLEWIGAIHPGRGGTAYNQKFKGKATLTADKSTSTAYMELSSLTSEDTAVYYCTRITGYFDVWGQGTTVTVSS
VL: DVVMTQSPLSLSVTLGQPASISCRSSQSIVHSNGNTYLEWYLQKPGQSPQLLIYKVSNRFSGVPDRFSGSGSGTDFTLKISRVEAEDVGVYYCFQGSHVPLTFGQGTKLEIKR
B2 registered a fold binding affinity against the corresponding monkey OPN peptide in assay [3] above 100 times.

B3: polyethylene glycol modified F(ab')2 of the R2K1v1.7 antibody (other, not shown: small tags and cut ends)
heavy: QVQLQQSGAEVKKPGASVKVSCKALGYTFTDYEMHWVKQTPVHGLEWIGAIHPGRGGTAYNQKFKGKATLTADKSTSTAYMELSSLTSEDTAVYYCTRITGYFDVWGQGTTVTVSS
light: DVVMTQSPLSLSVTLGQPASISCRSSQSIVHSNGNTYLEWYLQKPGQSPQLLIYKVSNRFSGVPDRFSGSGSGTDFTLKISRVEAEDVGVYYCFQGSHVPLTFGQGTKLEIKRTVAAPSVFIFPPSDEQLKSGTASVVCLLNNFYPREAKVQWKVDNALQSGNSQESVTEQDSKDSTYSLSSTLTLSKADYEKHKVYACEVTHQGLSSPVTKSFNRGEC
modifications: maleimidated polyethylene glycol SUNBRIGHT ME-120MA coupled to thiol groups activated by DTT reduction
notes: Made by pepsin digestion of R2K1v1.7, reduction of F(ab')2 to Fab' with DTT and coupling with maleimide-PEG; also called F(ab')2-PEG; F(ab')2-PEG of R2K1v1.7
For the molecule B3, the binding result in the assay with biotinized hOPN5 peptide is listed as “binds”.

B4: R2K1v1.7-scFv (scFv)
scFv: QVQLQQSGAEVKKPGASVKVSCKALGYTFTDYEMHWVKQTPVHGLEWIGAIHPGRGGTAYNQKFKGKATLTADKSTSTAYMELSSLTSEDTAVYYCTRITGYFDVWGQGTTVTVSSGGGGSGGGGSGGGGSDVVMTQSPLSLSVTLGQPASISCRSSQSIVHSNGNTYLEWYLQKPGQSPQLLIYKVSNRFSGVPDRFSGSGSGTDFTLKISRVEAEDVGVYYCFQGSHVPLTFGQGTKLEIKR
notes: Structure VH1.7-linker-VL1.7, expressed in E. coli HB2151 periplasm, nearly all monomeric by gel filtration; also called scFv of R2K1v1.7; purified R2K1v1.7-scFv; not shown: C-terminal E-Tag from the pCANTAB5E vector, and any joining residues from the NotI site
As to B4, the results for the binding result (in assay [4]; with BSA) were “binds” and “no binding”, respectively.
